Experimental findings from publication PMC4380446 are described below.

Data set [1] deals with purified haemagglutinin H9 (H9-HA) (Influenza A virus H9N2 (avian; strain not given in material)). In words: capillary electrophoresis.
For data set [2], the system named is haemagglutinin on whole H9N2 virus (Influenza A virus H9N2 (avian; strain not given in material)). Put plainly: capillary electrophoresis.
Data set [3] shares this test system. Put plainly: competition ELAA.

pKd: −log10 of the molar value.

A word on the pKd: it is the negative decadic logarithm of the Kd, by convention in mol/L. A low value points to a large Kd. As to “GCTGCAATACTCATGGACAGCCTCCTGGGGTCAGGCTCAGACATTGATAAAGCGACATCGGTCTGGAGTACGACCCTGAA [A9]”, the pKd in data set [1] is 7.34; in data set [2], 7.37. The sequence further came in with an inhibition of binding in data set [3] of 76.3 % inhibition.

Consider “GCTGCAATACTCATGGACAGCGGGGGTCTCGCCCTCCCGGCGGCCTCGGCGAGCGTCGGCGTCTGGAGTACGACCCTGAA [A6]”, for which the pKd in data set [1] was 7.69.
